Measurements published in paper PMC3963902 (PLoS ONE, 2014).

Experiments:
[1] = target: the molecule itself; experiment: crystal structure; His-tagged Se-Met labelled LpEst1; 1 M sodium malonate, 0.5% (v/v) Jeffamine ED-2001, 100 mM HEPES pH 7.0, 5 mM DTT; space group I4, four molecules in the asymmetric unit; 2.05 A
[2] = target: the molecule itself; experiment: SEC; analytical gel filtration on Superdex 200 10/300 GL Tricorn; 20 mM Tris-HCl pH 8.0, 0.1 M NaCl, 5 mM DTT, 0.04% sodium azide; size from Kav against standards
[3] = target: the molecule itself; experiment: AUC; sedimentation equilibrium at 12,000 and 18,000 rpm; Gln189Glu mutant 10 uM in McIlvaine buffer pH 5.0 (Na2PO4, citric acid); fit to an ideal single species

B1: His-tagged, selenomethionine (Se-Met) labelled LpEst1 (enzyme, Lactobacillus plantarum WCFS1, UniProt Q88Y25 1-337, looked up)
chain: MPTINSIQTTVNGVVKIVKPFNNDIAGEQFDPHVLQTLTAFKQPAILENDLAALRSGSLTPAIADPVGDAVTVQSRNITALNRTVSVEWLTPQNVINHTVLVYFHGGAFYGGVPGNNTVLLKLVAAKSHCEILNVDYSLAPEAPAPAGILDGLAIFQYLEQRDAETMITVAGDSAGANVIMAATNLNQQLGSNRINQQLLLYPVTAPNADHAGPLWDLAAFPIIDSQRAILTNYHDLFRQLDSIMTDYYVPENFDSHSPLISPLHQENFTMTPPTTIMVGEFDPFRPQAWAYAQRLAAADTATTFIQYQGLNHAFAPLVDQYWQSQDVAQVMAAALI
modifications: selenomethionine (Se-Met labelled)
notes: carboxylesterase LpEst1, Lactobacillus plantarum WCFS1, UniProtKB/Swiss-Prot Q88Y25; 337 residues; Methionines replaced by selenomethionine; incorporation checked by mass spectrometry; also called Se-Met LpEst1; Se-Met labelled LpEst1 esterase
binding result [1]: binds

B2: carboxylesterase LpEst1 from Lactobacillus plantarum WCFS1 (wild type, native) (enzyme, UniProt Q88Y25 1-337, looked up)
chain: MPTINSIQTTVNGVVKIVKPFNNDIAGEQFDPHVLQTLTAFKQPAILENDLAALRSGSLTPAIADPVGDAVTVQSRNITALNRTVSVEWLTPQNVINHTVLVYFHGGAFYGGVPGNNTVLLKLVAAKSHCEILNVDYSLAPEAPAPAGILDGLAIFQYLEQRDAETMITVAGDSAGANVIMAATNLNQQLGSNRINQQLLLYPVTAPNADHAGPLWDLAAFPIIDSQRAILTNYHDLFRQLDSIMTDYYVPENFDSHSPLISPLHQENFTMTPPTTIMVGEFDPFRPQAWAYAQRLAAADTATTFIQYQGLNHAFAPLVDQYWQSQDVAQVMAAALI
notes: carboxylesterase LpEst1, Lactobacillus plantarum WCFS1, UniProtKB/Swiss-Prot Q88Y25; 337 residues, about 36.7 kDa; complete protein molecules in the crystal model; The crystals were of His-tagged protein; also called native LpEst1; wild-type protein; source: recombinant, from the expression vector pURI3-TEV-LpEst1
stoichiometry N [2]: 2

B3: LpEst1 Gln189Glu mutant (enzyme, Lactobacillus plantarum WCFS1, UniProt Q88Y25 1-337, looked up)
chain: MPTINSIQTTVNGVVKIVKPFNNDIAGEQFDPHVLQTLTAFKQPAILENDLAALRSGSLTPAIADPVGDAVTVQSRNITALNRTVSVEWLTPQNVINHTVLVYFHGGAFYGGVPGNNTVLLKLVAAKSHCEILNVDYSLAPEAPAPAGILDGLAIFQYLEQRDAETMITVAGDSAGANVIMAATNLNQELGSNRINQQLLLYPVTAPNADHAGPLWDLAAFPIIDSQRAILTNYHDLFRQLDSIMTDYYVPENFDSHSPLISPLHQENFTMTPPTTIMVGEFDPFRPQAWAYAQRLAAADTATTFIQYQGLNHAFAPLVDQYWQSQDVAQVMAAALI
notes: carboxylesterase LpEst1, Lactobacillus plantarum WCFS1, UniProtKB/Swiss-Prot Q88Y25; 337 residues; single point mutant Gln189Glu; Made from the wild-type vector with the mutagenic primers printed in the methods; source: recombinant, point mutant of pURI3-TEV-LpEst1; purified (IMAC on a His-Trap FF column plus size exclusion chromatography, last step in McIlvaine buffer pH 5.0)
stoichiometry N [3]: 2
